# From the DeepSol protein solubility set
# Assay: soluble on expression in E. coli; label from the status in PepcDB or PDB records
row,Sequence,soluble on expression in E. coli
1,MAHHHHHHMCVSVCACARPCSLLISLFEKRQHGWGCCNSFTFEHVCSADAVRCLFFFVCDSPSSSLPPSLFTRHSPLLFSSCPFACPSSVHPQRQDNTRRRAEQPCAQALWIRRGINRIGNLLVPNDNYCWFEDFFTPVLESVQEAQRASRWKTHTAPSEFIEAMGAAIAKNHPDTCTSSLVYWCYRNGISVFSPAFTDGSMGDMIYFYNFSHKGLVVDPLEDVVRLRKLAAKEKGRNLAIVLGGGLPKHHLLRNVSMDAVVMVTTGLEADGCVSSGVLADDVACGLLREETETVRVQGDATVVFPLMLIAEKAATLEGAAA,not soluble
2,MAHHHHHHMDAAWEAHIRLDPATDAAMRSNSGSRANSGGAGTPPVTLAPPEHPFNVMSFNTASAGCSIAHCGFLRGREEDFLREVVQRLQPSSSPSAARHLLYVITSANDVYVVDVKTEVVFLHWAGGASTSGCSSSSSEASASPLGAQFIVTQAETYGALMYLTVARRSSVKTATEQAASRGCHLFSGGGGPERNVYQRCNDPAVYVLHLGCTKPLAASTTKAFIAGGGAYVIQAVSKDKPHPTSKHSRSNAASATASAGALSIRAPSVGASAATAAERIGSAGVCRRRRRWGGDPEEGAADLLRCQRTPRPQPVIDAQFVPSAAVLVPCHGAGHSSSSCKWICRNVQILLVTPTRQQLLCTAGRRRNGRREQRGPL,not soluble
3,MAHHHHHHMDEFRPDDTTQIEEGSESNAALLQLQDALVSALTASGTLGKIRAQLRATALALIRGDDELQNAAVGPFIRPRTLTTHAKVSLLLLHDFLQHYHLQQTAGVLDVESSVHLLFNERSVLLGDLARLPGDGSLLERLVRLYEPTRQIPAVGPSGATAVTTASQTSVSIPAAKLPASPVASSSSSASQEQTVAMAQPQDADVQYELDAYEDSIPFSDTEGTIDGNVHCDEVERLTQ,not soluble
4,MAHHHHHHMDKQAERGQSAGPVKTPQGTQPPAHNYTYHTNAAQRAVYDYLKNVKPIPELAEPKTYKTYEEASVEAVLYPIIEKHQVIMVAGAFFGDEGKGKTVNAVANHPGCTFIARVNSGENAGHTVYDDAGRKFVFNLAPSGLLSKGKRNYVGPECVMDPISFMENEVKQLIEANVPYKEQLFIGNVSIVTPYHKLLDLLASAPNSSTLKGMAPIHASKVTKRGIRLDHIFNDQSVLRSRLRKDIDTYFGFLKVKGLSDADVLRRCEKENGDGVVRVPPYVVEFVQAEDKVEYLVKLYMDRVRNNKNFPARCDVAHELRSALSRGEKVMLEGPQSYWLSNAREKFWESTTSADTTASGLLATAQYNFQLYSSVVINVHKAPGSSRVGVGANPSSFVAQDYFSATGVKTLRDLPENMCVDFDSIQKLFFTKAFHPETKEYNGIWEPLEFEDSTGKYNIGVAMAVASSRQHGECGAVTKKPRVCGFFDCVLQYEVNAVQGPYLSISALDRGDDYDKLGVTIAYVYYNGKNDEVLNINGREYKNGDIIKAGEAVPGEVALYYCHPIVKLINGWKQTPIAASKRKPGDPLPRGVCEFLSTVEYFTKAKIISIGNGPRGKDIIYIKQ,not soluble
5,MAHHHHHHMDPSVSLEGIVDLTASNFDEHVGKGVPALVEFYAPWCGHCKKMVPEFEKVGQAVKTARDKVLVGKVDATQNRDLAERFGVNGYPTILFFPADSQTKQQYSEAREAAAFLSFLNRQVPGLNIGVPHEHTYAVELTKRNFDAVVMDEAKDALVMFYAPWCGHCKKLHPVFERLATAFKEEADIVIGKLNADDASNGAVRNRYKVDGYPTLAFFQKRSKSEPQYYSGGRSLEELVEYVNERTGKNRLPSGDLSEKVGVNDELSKVLRDMMLKEKSVDEKKQYLEKVKKAAADLTGVEAVHYPRIAEKILQLGAEYVEMELGRIARLKQGDVKGEKRDMLTIRNNILASLKDE,not soluble
6,MAHHHHHHMEDAQSGRASFSLRVPLCELLPKDSSLTDSPQNAVNLLYTICFSNTELKLRMKVTNTSEEQSAPFQFAFHTYFAVSDVSRTVVSGVNRSPFVDNCKARGNPDAPPSPPEQLWIIRGEHDRVYPDQACAIVLQDMGAKTTLQISSPNLSDVCLWNPGESKCAAMKDMPPDGYKHFVCVEHGKMLKKVVVPPCSSWTGTQEIAIIAESPHESSI,not soluble
7,MAHHHHHHMEGEEKVELSQLELKLEELQVIWEDVQATCPATHSSKRRNSSDAVASPPRVRSTSGAAQRQGANTQEPLQLPSPQSKHPSLRLLHANNKGKLRCTNPVASEGAVLGGIVSVSPPHSPANASVGACPHGRDGGVRNCVPSRLPPLDASHAQELLKACSNCGVEQRRPTAQFCWNCGTRI,not soluble
8,MAHHHHHHMELPFQWDDGNFISPFLTSGDDTLRVLAAWLNDSPLLRFQHGGALRLTDLGCGDGSALLSLSAGLFTLWGASGCRDVSPLQLTAVGLDLDEELILAARRRAEAIIVPPPHRLHCVFETVDVRQLDAAQYFPLSESSRHVLFVYLLPEGLEAIREKLLEIISRVALLVSNRWEVPFLARWKRVKLQNLHLYQYVGDGAN,not soluble
9,MAHHHHHHMENKENLRNQQEFNQLCRILRLVEGDPGQVVKEPPNLGILIEVLQKMVKATFVKESSYQEAVDAREKWKSTDSTVETKNIMDKQRADDLVRYKITHEKLKKLLAKAKMLVSRIKEERYLAYVSRNAALEKMAKVVYGSSAEKMFRNETEFEKFLANSQGTIVGKTAKETCGMSNDKMKNVSFAGYSLVGDFFCLCVGENNNATLCDKSFSGPREEHKWTKVMFEDKLVDFAAGWFKIRGLCYVNATSGIKDVVTPENISTEIVAFNKMLGRQRDDVQIYRREAESYRQYILGRVEQVGFTDSAICTGEHQHMCVNYAQCLVSNKGIPWQLKLMEAEEDLEDVEKHNMEVHVLIGRLDKLIEKIKKAAEQLSQEMEGIDVAVEKVQLLEEEIEENETTGKSEATAGEFNDNAQPEEGSLDKCEYWGMFSILFGVVAFSLV,not soluble
10,MAHHHHHHMESLDERWNNQVDNFHIKVNKLRCDMNEYKKGCYNTYNLRNNKNDVFPHLQNNNMKRRELINMNNNYEIKNYLKKPHNQTYILKDNKYVNVDDITFPVSKNISNKVIKTNDEKILENKCCFKLNVRNKRKNEKVIKINEKRWLIATKHVKIERVNKNGVEQSEEKNKKDKNRYIYLEGEEGNLHLYPMYSDSEVGFENISHIEDESLSKVKKENQDDDDIMTTKHLAQWSSDIVHKYLEEAIEKSKSIFQNCNMESRQEEIFKRIKL,not soluble
11,MAHHHHHHMESPEADEAFSKSLDAKVDDLFARIPLPQDPMKVALALTDEEAREEAATELVKEAVREMYWRKLGAKQAEELRLKKAQEKLQKQGAIQYFEERREEERLREHENTQFAAQPLAVEPQSPVGKGVTASPLQNLDSTLSAEELRKELAAMKANVSRLEELLRYKT,soluble
12,MAHHHHHHMEYDKEKMESLVSKVKEKFGKKVEIVNLKLDVKMPLFEIFLQASIHTQIKIFYARGRTLQYRLPPVFWTRCKILKENKILQEKYGGECAPGLFPQYDEYNIMQIMTECVYNDKYNFYVYDVNLEWENLCALTPENRELRKIVHQNVHVPTRLAVIKAFEQGVEDFRDVIREEYLIMLREQRKLKENKKYKF,not soluble
13,MAHHHHHHMFHGFPQVQVVSDDAPTGESIFAKDSDSHVELPPAKKVRISFPALTHLGSFSQDATCHSAVGGRLCGVQQGDTILITSVLPSLGASGDAEDERDDTAESKQQQKMYEKVKEMLRKECLDSYSVGYFIVSSACVNDPYSVVTADRLANLAIDGHPSVLLVYDPFRTGLMGKLYLRAFVPTDAFLDFSRKNKKTKKTDKKSGMQEEARLLRACSVPKQGVLREVKVEVEVDAYQLFCLNGIDIAPLPSNSTVHHSDSMADYKVALLESVQRNLSDLEGKLSRETSRNQRDENNVPPARGVDTMLALVQLREQAQHLEALCDGTLLISSLLRDL,not soluble
14,MAHHHHHHMFNYRREVLLDLWRKMPEAAACETVAPPEAVKGEEKRQQSVVKTQLDWLSEELKLSSSIIQSDYKVYAAFVHRRWVFMQLRRLAESALGNVGKRSKPAAPAGCQLGECAAAGEFDLPEEVLFWAKALLKEKRQGDALLAMDERNFHAWEFRRWVMYQLGQMEDLFVQSSIQFGPAVVGIKEREFASYMNGSAKSDRPRDLFFTPTEVKELNFTSAAVRRNFSNYSAWHQRGFIMQGALRRLQQRQWREEEADNNLRDGMLSQAWGQLEEDLTLLTTAIYCDPLDQSAWYYAKFLIHASKQLTALPFASTAVPIDITAKLDEVCLDLVGEERRLGEDMETYWPYLHLATSLLTSIKKSNDGNSSDVISDRQSALKLAREVWAALQPQGRHVNGDDDCIKCLQELCAHLTTADPLRAGMYKYFLSEVTTA,not soluble
15,MAHHHHHHMFRFCGRRLVARTLPLLADYQELPEAFEFMEHKVADKDIHSAYENMETLRLTVTRQDEFLFKETPVKCVTIVGVNGECGVYPGHAYEITQLTPAPLTVEMPDGTVKKFFTSGGFAHINNEGSCDINCVECIPLTELDVDAAEKALAQQQSALNSAHDDKARAVIEIRIGVLESVIQSLKHA,not soluble
16,MAHHHHHHMFTKFLSRVKAMPPRSGDWANKLGPVALMGCSVGAHMSSTKLLNHFYTSSRDCDMYAELTFHEPGPVECPPETVIFFPVIQCGEMLDEKGEPSEATKDDWYLAMTESTTELLEKGYVPVSVGGDGSATLAMVEAYKRLFRSSEVVLIHCSARPSLEKAEQPIRVLLEKDLLKGVVEIGNRCVSSGDRKIRKQHKVMYMDMQAIYAKGLFCIRDIRNDYPVFLSIDADVLDPAFAPGVESPVPGGFSTRDLLHIMTGIRGPKVAGIDIHGYHPSLDMCRSDGVGLTQMALTKVLKESIVKAYTISTQTAEEGLERVRLMQRQGTLSDNPYPDH,not soluble
17,MAHHHHHHMGCSASKDTTNSKDGAASKGGKDGKTTADRKVAWERIRCAIPRDKDAESKSRRIELFKRFDTNGTGKLSFREVLDGCYSILKLDEFTTHLPGIVQRAFDKAKDLGNKVKGVGEEDLVEFLEFRLMLCYIYDIFELTVMFDTMDKDGSLLIELQEFKEALPKLKEWGVDITDATTVFNEIDTNGSGVVTFDEFSCWAVTKKLQVCGDPDGEGAAKTTADRKVAWERIRCAIPRDKDAESKSRRIELFKQFDTNGTGKLGFREVLDGCYSVLKLDEFTTHLPDIVQRAFDKAKDLGNRVKGVGEEDLVEFLEFRLMLCYIYDIFELTVMFDTMDKDGSLLLELQEFKEALPKLKEWGVDITDATTVFNEIDTNGSGVVTFDEFSCWAVTKKLQVCGDPDGEENGANEGN,soluble
18,MAHHHHHHMGKKKVGEIQRSEDFCIPAGDRDANSALPAEEWPLLLKNYDKMNVRSTHFTLLECGWSPLRRPLAEYIKYGMINMDKPSNPSSHEVVSWIKRILKCDKTGHAGTLDPKVTGALIICTDRATRLVKSQQNAGKTYIGVLRLHDTVSQKKVDAALQRLTGPCFQRPPLIAAVKRQLRIRNIYSNQLIEYDKHRHLAVFETHCEAGTYIRTLCVHVGLILGAGGHMEELRRIRTGVITENDHLSTMHDVMDAQWLYENEKDDTYLRRVILPCEYLLSNHKRIVVKDSAVNAVCYGAKLMIPGLARFDNGIERDDVVVLMTTKGEAIALAYAEMTTSQMASVDHGIVARSKRVIMDRDTYPRRWGLGPIAVKKRSMMKDGLLDKYGRPQSNTPSDWFYVDYGGVKTNAEGVQYGQAPSKVGGVKRQRVPDSDDD,not soluble
19,MAHHHHHHMGNTGVPSFVSTLGPPPPINLFKECQSPLTSGFSSWASFHWILLSDAFSHYYRPLECQTFYGCNFQKQLDAAANYNSFWPHHSRRLEAIRSNTPEQLCITSLHPPSRSPLTQQFPSGSFTQSPYGCRPRSLPCTAPQQWQMHRRSLQQGREHEAGRLLQQPLSFSLI,not soluble
20,MAHHHHHHMGNTVPYNCYERWGKRTPDGPLLNYDPQMPNSGTLSVLLENFDYESTEESNNKCEYIINKEPIEKNNNMNPKVIRNARRRPTYSPTARKINIQSDDEEEDEDDDEKLSTDDSDENISAKDIKDEKIQQYRKTLTKIVKIKTAIFHETVKVTCSKDGKMLEWYKGKNDSDGKKKPIGSFPLNKITSIRTKVDNLKSLEISVSSVHISTYLFTFKTREERESWQNNLESFRKIMSMK,not soluble
